Measured values taken from patent US20250215092A1 (ZHEJIANG NANOMAB TECHNOLOGY CENTER, published 2025).

B1: E005.1 (VHH)
VHH: QVQLVESGGGLVKPGGSLRLSCAASGFAFSDYTMRWHRQAAGKELELVSYITSAGDIIKYANSVRGRFTISRDNAKNTLYLQMNSLRAEDTAVYRCNALVSASVRASDYWGQGTLVTVSS
notes: Humanized VHH; also called humanized variant of E005
B2: E005.4 (VHH)
VHH: QVQLVESGGGLVKPGGSLRLSCAASGFAFSDYTMRWHRQAPGKELELVSYITSAGDIIKYANSVRGRFTISRDNAKNSLYLQMNSLRAEDTAVYRCNALVSASVRASDYWGQGTLVTVSS
notes: as for B1
B3: E005.6 (VHH)
VHH: QVQLVESGGGLVKPGGSLRLSCAASGFAFSDYTMRWHRQAAGKELELVAYISSAGDIIKYANSVRGRFTISRDNAKNTLYLQMNSLRAEDTAVYRCNALVSASVRASDYWGQGTLVTVSS
notes: as for B1
B4: E005.5 (VHH)
VHH: QVQLVESGGGLVKPGGSLRLSCAASGFAFSDYTMRWHRQAPGKELELVAYITSAGDIIKYANSVRGRFTISRDNAKNTLYLQMNSLRAEDTAVYRCNALVSASVRASDYWGQGTLVTVSS
notes: as for B1
B5: E005.2 (VHH)
VHH: QVQLVESGGGLVKPGGSLRLSCAASGFAFSDYTMRWHRQAAGKELELVAYITSAGDIIKYANSVRGRFTISRDNAKNSLYLQMNSLRAEDTAVYRCNALVSASVRASDYWGQGTLVTVSS
notes: as for B1
B6: E005.3 (VHH)
VHH: QVQLVESGGGLVKPGGSLRLSCAASGFAFSDYTMRWHRQAAGKELELVAYITSAGDIIKYANSVRGRFTISRDNAKNTLYLQMNSLRAEDTAVYRCNALVSASVRASDYWGQGTLVTVSS
notes: as for B1
B7: E005.8 (VHH)
VHH: QVQLVESGGGLVKPGGSLRLSCEASGFAFSDYTMRWHRQAAGKELELVAYITSAGDIIKYANSVRGRFTISRDNAKNTLYLQMNSLRAEDTAVYRCNALVSASVRASDYWGQGTLVTVSS
notes: as for B1
B8: E005.7 (VHH)
VHH: QVQLVESGGGLVKPGGSLRLSCAASGFAFSDYTMRWHRQAPGKELELVAYITSAGDIIKYANSVRGRFTISRDNAKNSLYLQMNSLRAEDTAVYRCNALVSASVRASDYWGQGTLVTVSS
notes: as for B1
B9: E008.1 (VHH)
VHH: EVQLVESGGGLVQPGGSLRLSCAASGLPLLDYAIGWFRQAPGKEREAVSAISISEGSTYYTDSVRGRFTISRDNSKNTVYLQMNSLRAEDTAVYYCAADKTDIGFWLLVGGAGGGEVRYEYWGQGTQVTVSS
notes: Humanized VHH; also called humanized variant of E008
B10: E008.5 (VHH)
VHH: EVQLVESGGGLVQPGGSLRLSCAASGLPLLDYAIGWFRQAPGKEREAVSAISISEGSTYYTDSVRGRFTISRDNSKNKVYLQMNSLRAEDTAVYYCAADKTDIGFWLLVGGAGGGEVRYEYWGQGTQVTVSS
notes: as for B9
B11: E008.6 (VHH)
VHH: EVQLVESGGGLVQPGGSLRLSCAASGLPLLDYAIGWFRQAPGKEREAVSAISISEGSTYYTDSVRGRFTISRDNNKNKVYLQMNSLRAEDTAVYYCAADKTDIGFWLLVGGAGGGEVRYEYWGQGTQVTVSS
notes: as for B9
B12: E008.4 (VHH)
VHH: EVQLVESGGGLVQPGGSLRLSCAASGLPLLDYAIGWFRQAPGKEREAVSAISISEGSTYYTDSVRGRFTISRDNNKNTVYLQMNSLRAEDTAVYYCAADKTDIGFWLLVGGAGGGEVRYEYWGQGTQVTVSS
notes: as for B9
B13: E008.3 (VHH)
VHH: EVQLVESGGGLVQPGGSLRLSCAASGLPLLDYAIGWFRQAPGKEREAVSAISISEGSTYYTDSVRGRFTISRDNSKNTVYLRMNSLRAEDTAVYYCAADKTDIGFWLLVGGAGGGEVRYEYWGQGTQVTVSS
notes: as for B9
B14: E008.2 (VHH)
VHH: EVQLVESGGGLVQPGGSLRLSCAASGLPLLDYAIGWFRQAPGKEREAVSAISISEGSTYYTDSVRGRFTISRDNSKNKLYLQMNSLRAEDTAVYYCAADKTDIGFWLLVGGAGGGEVRYEYWGQGTQVTVSS
notes: as for B9
B15: E008.9 (VHH)
VHH: EVQLVESGGGLVQPGGSLRLSCAASGLPLLDYAIGWFRQAPGKELEAVSAISISEGSTYYTDSVRGRFTISRDNNKNKVYLQMNSLRAEDTAVYYCAADKTDIGFWLLVGGAGGGEVRYEYWGQGTQVTVSS
notes: as for B9
B16: E002.1 (VHH)
VHH: EVQLVESGGGLVQPGGSLRLSCAASGFTFSDYAVSWYRQAPGKEREFVSRITGTGETSRYEDSVKGRFTISRDNSKNTAYLQMNSLRAEDTAVYYCSIYHPPRDYWGQGTQVTVSS
notes: Humanized VHH; also called humanized variant of E002
B17: E002.6 (VHH)
VHH: EVQLVESGGGLVQPGGSLRLSCAASGFTFSDYAVSWYRQAPGKEREFVARITGTGETSRYEDSVKGRFAISRDNSKNTAYLQMNSLRAEDTAVYYCSIYHPPRDYWGQGTQVTVSS
notes: as for B16
B18: E002.2 (VHH)
VHH: EVQLVESGGGLVQPGGSLRLSCAASGFTFSDYAVSWYRQAPGKEREFVSRITGTGETSRYEDSVKGRFTISRDNVKNTAYLQMNSLRAEDTAVYYCSIYHPPRDYWGQGTQVTVSS
notes: as for B16
B19: E002.4 (VHH)
VHH: EVQLVESGGGLVQPGGSLRLSCAASGFTFSDYAVSWYRQAPGKEREFVARITGTGETSRYEDSVKGRFTISRDNSKNTAYLQMNSLRAEDTAVYYCSIYHPPRDYWGQGTQVTVSS
notes: as for B16
B20: E002.5 (VHH)
VHH: EVQLVESGGGLVQPGGSLRLSCAASGFTFSDYAVSWYRQAPGKEREFVARITGTGETSRYEDSVKGRFTISRDNVKNTAYLQMNSLRAEDTAVYYCSIYHPPRDYWGQGTQVTVSS
notes: as for B16
B21: E002.7 (VHH)
VHH: EVQLVESGGGLVQPGGSLRLSCAASGFTFSDYAVSWYRQAPGKEREFVARITGTGETSRYEDSVKGRFAISRDNVKNTAYLQMNSLRAEDTAVYYCSIYHPPRDYWGQGTQVTVSS
notes: as for B16

Target: T1, human EGFR.His antigen (Acro, Cat #EGR-H522a) (human, UniProt P00533 25-645)
T1 construct: extracellular domain; Bought protein; also called EGFR his tag protein; full-length EGFR extracellular domain protein; not shown: His tag
Test: SPR, human EGFR.His

Row | Binder | Kd | koff | kon
1 | B1 | 3.3 nM | 3.5e-05 s⁻¹ | 11000 M⁻¹ s⁻¹
2 | B2 | 4.8 nM | 9.6e-06 s⁻¹ | 2000 M⁻¹ s⁻¹
3 | B3 | 2.5 nM | 4.1e-05 s⁻¹ | 16000 M⁻¹ s⁻¹
4 | B4 | 0.74 nM | 1.1e-05 s⁻¹ | 15000 M⁻¹ s⁻¹
5 | B5 | 1.2 nM | 2.1e-05 s⁻¹ | 18000 M⁻¹ s⁻¹
6 | B6 | 2.7 nM | 1.7e-05 s⁻¹ | 6100 M⁻¹ s⁻¹
7 | B7 | 2.1 nM | 2.7e-05 s⁻¹ | 13000 M⁻¹ s⁻¹
8 | B8 | 0.71 nM | 2.5e-06 s⁻¹ | 3500 M⁻¹ s⁻¹
9 | B9 | 18 nM | 0.0087 s⁻¹ | 480000 M⁻¹ s⁻¹
10 | B10 | 24 nM | 0.012 s⁻¹ | 510000 M⁻¹ s⁻¹
11 | B11 | 32 nM | 0.013 s⁻¹ | 430000 M⁻¹ s⁻¹
12 | B12 | 21 nM | 0.0093 s⁻¹ | 450000 M⁻¹ s⁻¹
13 | B13 | 5.8 nM | 0.028 s⁻¹ | 4.9e+06 M⁻¹ s⁻¹
14 | B14 | 40 nM | 0.021 s⁻¹ | 540000 M⁻¹ s⁻¹
15 | B15 | 25 nM | 0.012 s⁻¹ | 490000 M⁻¹ s⁻¹
16 | B16 | 5 nM | 0.00039 s⁻¹ | 78000 M⁻¹ s⁻¹
17 | B17 | 9.4 nM | 0.00038 s⁻¹ | 40000 M⁻¹ s⁻¹
18 | B18 | 5.1 nM | 0.00068 s⁻¹ | 130000 M⁻¹ s⁻¹
19 | B19 | 11 nM | 0.00045 s⁻¹ | 43000 M⁻¹ s⁻¹
20 | B20 | 13 nM | 0.00055 s⁻¹ | 43000 M⁻¹ s⁻¹
21 | B21 | 11 nM | 0.00046 s⁻¹ | 40000 M⁻¹ s⁻¹
